Laboratory results reported in patent US8491891B2, “Human beta-glucuronidase mutants with elevated enzymatic activity under physiological conditions and method for identifying such” (Academia Sinica, priority 2008, dated 2013).

Key:
[1] = Relative activity of membrane-tethered human β-glucuronidase variants on 3T3 cells by flow cytometry (FL4/FL1); assay type: cell-based; details: membrane-tethered enzyme, pH 7.0, substrate ELF97 β-D-glucuronide
Procedure: The 3T3 cell libraries mentioned above were screened by FACS analysis for cells that express human β-glucuronidase variants with elevated enzymatic activity. 10^7 3T3 cells expressing membrane-bound human β-glucuronidase variants were washed and suspended in 0.4 ml BSA/HBSS (5.4 mM KCl, 0.3 mM Na2HPO4, 0.4 mM KH2PO4, 4.2 mM NaHCO3, 1.3 mM CaCl2, 0.5 mM MgCl2, 0.6 mM MgSO4, 137 mM NaCl, 5.6 mM D-glucose, pH 7.4) containing 0.5% bovine serum albumin (BSA) and 20 μg/ml 7G8-FITC for 30 min at 4° C. Cells were then washed and incubated with 25, 50 or 100 μM ELF97 β-D-glucuronide at defined pH values in 50 mM Bis-Tris, 25 mM glucose, 85.6 mM NaCl, 5.4 mM KCl, 0.6 mM MgSO4, 1.3 mM CaCl2) at 37° C. for 10 min. The cells were washed with ice-cold 0.5% BSA/HBSS and suspended in 0.5% BSA/HBSS containing 5 μg/ml propidium iodide (Sigma). Cells were then sorted on a FACSVantage DiVa (Becton, Dickinson and Company, Franklin Lakes, N.J.) equipped with an Enterprise IIC argon laser for dual excitation at 488 and 351-364 nm. Dead cells (propidium iodide positive, high FL3 fluorescence) were gated out before 7G8-FITC immunofluorescence was detected at excitation/emission wavelengths of 488/515 nm (FL1) and ELF97 was detected at excitation/emission wavelengths of 351/530 nm (FL4). […] The sorted cells were cultured for 4-10 days for sequential rounds of cell sorting or RNA extraction. Flow cytometer data was analyzed using Flowjo (Tree star, Ashland, Oreg.).
Independent 3T3 clones (5×10^7) in library EP2 mentioned above were immunofluorescence stained with 7G8-FITC and reacted with ELF97 β-D-glucuronide at pH 7.0. Sixteen individual cell clones were isolated after three rounds of sorting and the human β-glucuronidase genes were sequenced. […] Table 1 below lists amino acid substitutions in five exemplary variants and their relative enzymatic activities.

[2] = Enzymatic activity of purified position-545 single mutants at pH 7.0; assay type: biochemical; details: purified enzyme
From the text: DNA plasmids were extracted from 12 individual cell clones and subjected to DNA sequencing to examine mutations in the genes encoding human β-glucuronidase variants. All human β-glucuronidase variants being examined had mutations at position 545 (50% T→A and 50% T→S). To determine the effect of amino acid substitutions at position 545 on enzyme activity, the single amino acid mutants T545A (E1-A), T545G (E1-G), T545S (E1-S) and T545Y (E1-Y) were generated and purified from the culture medium of stably transfected fibroblasts. […] Thus, the single amino acid substitution at position 545 affected human β-glucuronidase activity at neutral pH.

[3] = Kinetic values (Km, kcat) of soluble recombinant human β-glucuronidase and variants; assay type: biochemical; details: for kcat/Km, fold higher than wild-type human β-glucuronidase: pH 7.0
Procedure: Recombinant His-tagged wild-type human β-glucuronidase and its variants (soluble) were produced in and purified from stable 3T3 fibroblast lines, following the method described above also the method described in Wu et al., Biotechnol Appl Biochem 40:167-172 (2004).
(§1) The pH-dependent enzyme activities of the above-mentioned recombinant human beta-glucuronidase and variants were measured in triplicate with 0.1 mM ELF97 β-D-glucuronide at 37° C. for 30 minutes at a defined pH ranging from 3-10 in a beta-glucuronidase reaction buffer (50 mM Bis-Tris, 50 mM triethanol amine, 100 mM acetic acid, 0.1% BSA). The reaction was quenched by adding an equal volume of a stop buffer (2 M Tris-HCl, 0.8 M sodium bicarbonate, pH 8). The fluorescence of ELF97 was measured in a Gemini EM microplate spectrofluorometer (Molecular Device, Sunnyvale, Calif.) at excitation/emission wavelengths of 355/555 nm. Kinetic values for human beta-glucuronidase substrate hydrolysis were determined by diluting ELF97 β-D-glucuronide (2 mM) in a pH 4.5 or pH 7.0 beta-glucuronidase reaction buffer 1:1 with defined concentrations of human beta-glucuronidase in 200 μl. Fluorescence was immediately measured under thermal control at 37° C. for 8-10 min. The measurement was repeated using the same amount of enzyme at different substrate concentrations in an optimal range. The acquired readings were converted to product concentration based on preestablished standard curves. Double reciprocal plots were used to determine Km and kcat. Kinetic assays were performed at least 3 times and mean values were calculated. The stability of recombinant human beta-glucuronidase variants was carried out by measuring their enzymatic activity at time 0 and again after incubating 5 μg purified enzymes in PBS (containing 0.5 mg/ml BSA) at 37° C. for 14 days. The enzymatic activities of the human beta-glucuronidase variants were measured in triplicate with 0.5 mM 4-methylumbelliferyl β-D-glucuronide at 37° C. for 15 minutes at pH 7.0 in β-glucuronidase reaction buffer. The reaction was terminated by adding an equal volume of a stop buffer (1 M glycine, 0.5 M sodium bicarbonate, pH 11) and the fluorescence was measured at excitation/emission wavelengths of 355/460 nm in a microplate spectrofluorometer.

[4] = pH-dependent enzyme activity of recombinant human β-glucuronidase and variants (pH 3-10); assay type: biochemical
Procedure: as §1, with “The measurement was repeated using the same amount of enzyme at different substrate concentrations in an optimal range.” left out, “Double reciprocal plots were used to determine Km and kcat.” left out, “The stability of recombinant human beta-glucuronidase variants was carried out by measuring their enzymatic activity at time 0 and again after incubating 5 μg purified enzymes in PBS (containing 0.5 mg/ml BSA) at 37° C. for 14 days.” left out, “The reaction was terminated by adding an equal volume of a stop buffer (1 M glycine, 0.5 M sodium bicarbonate, pH 11) and the fluorescence was measured at excitation/emission wavelengths of 355/460 nm in a microplate spectrofluorometer.” left out

[5] = test system: EJ human bladder cancer cells; test: Prodrug activation of SN-38G by enzyme, 3H-thymidine incorporation; assay type: cell-based; details: 100 nM SN-38G, pH 6.8, 24 h
Procedure: (§2) The prodrug activation activity of the human beta-glucuronidase variants was determined as follows. EJ human bladder cancer cells were incubated with graded concentrations (see FIGS. 3B and 3C) of human β-glucuronidase variants in RPMI (pH 6.8) containing either 10 μM HAMG or 100 nM SN-38G for 24 hours. The cells were further incubated for 24 hours in fresh medium before incorporation of ^3H-thymidine into cellular DNA was measured following the procedure described below.
(§3) Purified recombinant human beta-glucuronidase and its variants with defined concentrations were mixed with 10 μM HAMG or 100 nM SN-38G and the mixture was added to 5000 EJ human bladder cancer cells in 200 μl complete medium at pH 6.8 for 24 h. The cells were washed and incubated in fresh medium for 24 h and then pulsed for 16 h with ^3H-thymidine (1 μCi/well). The cells were harvested and the radioactivity was measured in a TopCount Microplate Scintillation Counter (Packard, Meriden, Conn.). Results are expressed as percent inhibition of ^3H-thymidine incorporation into cellular DNA in comparison to untreated cells.

[6] = test system: EJ human bladder cancer cells; test: Prodrug activation of HAMG by enzyme, 3H-thymidine incorporation; assay type: cell-based; details: 10 μM HAMG, pH 6.8, 24 h
Procedure: as §2, §3

Row | pH of maximal activity ([4]; 0.1 mM ELF97 β-D-glucuronide, 37° C., 30 minutes) | Activity at pH 7.0 as percent of maximal activity ([4]; pH 7.0) | Molecule | Relative activity (FL4/FL1 normalized to wild-type human β-glucuronidase) [1] | Enzymatic activity relative to wild-type human β-glucuronidase [2] | Km ([3]; pH 4.5, 37° C.) | kcat ([3]; pH 4.5, 37° C.) | kcat/Km, fold higher than wild-type human β-glucuronidase [3] | Km ([3]; pH 7.0, 37° C.) | kcat ([3]; pH 7.0, 37° C.) | EC50 of enzyme for killing of EJ cells with SN-38G [5] | EC50 of enzyme for killing of EJ cells with HAMG [6]
1 |  |  | E1-S: human beta-glucuronidase variant T545S, SEQ ID NO: 6 (protein, Laboratory generated variant, E1-S, based upon the human beta-glucuronidase) GAQPALQGGMLYPQESPSRECKELDGLWSFRADFSDNRRRGFEEQWYRRPLWESGPTVDMPVPSSFNDISQDWRLRHFVGWVWYEREVILPERWTQDLRTRVVLRIGSAHSYAIVWVNGVDTLEHEGGYLPFEADISNLVQVGPLPSRLRITIAINNTLTPTTLPPGTIQYLTDTSKYPKGYFVQNTYFDFFNYAGLQRSVLLYTTPTTYIDDITVTTSVEQDSGLVNYQISVKGSNLFKLEVRLLDAENKVVANGTGTQGQLKVPGVSLWWPYLMHERPAYLYSLEVQLTAQTSLGPVSDFYTLPVGIRTVAVTKSQFLINGKPFYFHGVNKHEDADIRGKGFDWPLLVKDFNLLRWLGANAFRTSHYPYAEEVMQMCDRYGIVVIDECPGVGLALPQFFNNVSLHHHMQVMEEVVRRDKNHPAVVMWSVANEPASHLESAGYYLKMVIAHTKSLDPSRPVTFVSNSNYAADKGAPYVDVICLNSYYSWYHDYGHLELIQLQLATQFENWYKKYQKPIIQSEYGAESIAGFHQDPPLMFTEEYQKSLLEQYHLGLDQKRRKYVVGELIWNFADFMTEQSPTRVLGNKKGIFTRQRQPKSAAFLLRERYWKIANETRYPHSVAKSQCLENSPFTSVD | 21 | about 1.5 fold | 52 ± 4 µM | 117 ± 14 s⁻¹ | 4 fold | 390 ± 40 µM | 31 ± 6 s⁻¹ |  | 
2 |  |  | E1-G: human beta-glucuronidase variant T545G, SEQ ID NO: 7 (protein, Laboratory generated variant, E1-G, based upon the human beta-glucuronidase) GAQPALQGGMLYPQESPSRECKELDGLWSFRADFSDNRRRGFEEQWYRRPLWESGPTVDMPVPSSFNDISQDWRLRHFVGWVWYEREVILPERWTQDLRTRVVLRIGSAHSYAIVWVNGVDTLEHEGGYLPFEADISNLVQVGPLPSRLRITIAINNTLTPTTLPPGTIQYLTDTSKYPKGYFVQNTYFDFFNYAGLQRSVLLYTTPTTYIDDITVTTSVEQDSGLVNYQISVKGSNLFKLEVRLLDAENKVVANGTGTQGQLKVPGVSLWWPYLMHERPAYLYSLEVQLTAQTSLGPVSDFYTLPVGIRTVAVTKSQFLINGKPFYFHGVNKHEDADIRGKGFDWPLLVKDFNLLRWLGANAFRTSHYPYAEEVMQMCDRYGIVVIDECPGVGLALPQFFNNVSLHHHMQVMEEVVRRDKNHPAVVMWSVANEPASHLESAGYYLKMVIAHTKSLDPSRPVTFVSNSNYAADKGAPYVDVICLNSYYSWYHDYGHLELIQLQLATQFENWYKKYQKPIIQSEYGAEGIAGFHQDPPLMFTEEYQKSLLEQYHLGLDQKRRKYVVGELIWNFADFMTEQSPTRVLGNKKGIFTRQRQPKSAAFLLRERYWKIANETRYPHSVAKSQCLENSPFTSVD |  | about 2.5 fold | 22 ± 2 µM | 106 ± 4 s⁻¹ | 10 fold | 110 ± 10 µM | 32 ± 4 s⁻¹ |  | 
3 | 4.0 | 2% | Wild type: Human beta-glucuronidase (wild-type, SEQ ID NO: 11) (protein, listed as Homo sapiens) MARGSAVAWAALGPLLWGCALGLQGGMLYPQESPSRECKELDGLWSFRADFSDNRRRGFEEQWYRRPLWESGPTVDMPVPSSFNDISQDWRLRHFVGWVWYEREVILPERWTQDLRTRVVLRIGSAHSYAIVWVNGVDTLEHEGGYLPFEADISNLVQVGPLPSRLRITIAINNTLTPTTLPPGTIQYLTDTSKYPKGYFVQNTYFDFFNYAGLQRSVLLYTTPTTYIDDITVTTSVEQDSGLVNYQISVKGSNLFKLEVRLLDAENKVVANGTGTQGQLKVPGVSLWWPYLMHERPAYLYSLEVQLTAQTSLGPVSDFYTLPVGIRTVAVTKSQFLINGKPFYFHGVNKHEDADIRGKGFDWPLLVKDFNLLRWLGANAFRTSHYPYAEEVMQMCDRYGIVVIDECPGVGLALPQFFNNVSLHHHMQVMEEVVRRDKNHPAVVMWSVANEPASHLESAGYYLKMVIAHTKSLDPSRPVTFVSNSNYAADKGAPYVDVICLNSYYSWYHDYGHLELIQLQLATQFENWYKKYQKPIIQSEYGAETIAGFHQDPPLMFTEEYQKSLLEQYHLGLDQKRRKYVVGELIWNFADFMTEQSPTRVLGNKKGIFTRQRQPKSAAFLLRERYWKIANETRYPHSVAKSQCLENSPFT | 1 |  | 480 ± 60 µM | 175 ± 17 s⁻¹ |  | 2250 ± 670 µM | 41 ± 6 s⁻¹ | 0.096 µg/mL | 24 µg/mL
